Test results reported in patent US12576025B2, “Pharmaceutical parenteral composition of dual GLP1/2 agonist” (Zealand Pharma A/S, priority 2019, dated 2026).
*1 amine or outer side, *2 acyl side, *3 side chain or, on linkers, in order; H or OH if unused. Where no end group is shown, it is not given here. Side-chain parts run from the residue outwards. [ ]: non-standard residue; d: D form. The star is where a group is joined. C18 diacid = O=C(O)CCCCCCCCCCCCCCCCC(=O)*; γGlu = O=C(O)[C@H](CCC(=O)[*:2])N[*:1]; Aib = CC(C)(N)C(=O)O

Test: Physical stability via ThT fibril formation (ASSAY IVc)
Type: physicochemical
Design: key to Aggregation (ThT), no added tonicity agent / Aggregation (ThT), 270 mM mannitol: FD = Fibrillation Detected; FND = Fibrillation Not Detected
Details: for Aggregation (ThT), 270 mM mannitol / Aggregation (ThT), no added tonicity agent: 96 hours
Method: Samples were prepared in a total volume of 0.5 mL API (herein e.g. CPD1) stock solutions were prepared by dissolving API in demineralised water at ambient temperature (typically 25° C.) to achieve 5 and 25 mg/mL API, respectively. 8 working solutions were prepared: 1) 40 mM phosphate pH 6 and 80 μM ThT; 2) 40 mM phosphate pH 6.5 and 80 μM ThT; 3) 40 mM phosphate pH 7 and 80 μM ThT; 4) 40 mM phosphate pH 8 and 80 μM ThT; 5) 40 mM phosphate pH 6, 540 mM mannitol and 80 μM ThT; 6) 40 mM phosphate pH 6.5, 540 mM mannitol and 80 μM ThT; 7) 40 mM phosphate pH 7, 540 mM mannitol and 80 μM ThT; and 8) 40 mM phosphate pH 8, 540 mM mannitol and 80 μM ThT.
200 μL of API stock was mixed with 250 μL working solution, pH was measured and adjusted to target, followed by adding demineralised water to a final volume of 500 μL. Samples were loaded in a 96-well black fluorescence plate (clear bottom) in triplicate 3×150 μL. Data were collected at fixed intervals of 10 min, each preceded by 300 s of automixing (agitation), over a period of 96 hours at 40° C. Physical stability, expressed as lag-time of fibril formation (in hours), was defined as the intersection between two linear regressions representing the initial stable phase and the growth phase.

[1] = 2 mg/mL CPD1, 20 mM phosphate pH 6, 40° C.
[2] = 2 mg/mL CPD1, 20 mM phosphate pH 6.5, 40° C.
[3] = 2 mg/mL CPD1, 20 mM phosphate pH 7, 40° C.
[4] = 2 mg/mL CPD1, 20 mM phosphate pH 8, 40° C.
[5] = 10 mg/mL CPD1, 20 mM phosphate pH 6, 40° C.
[6] = 10 mg/mL CPD1, 20 mM phosphate pH 6.5, 40° C.
[7] = 10 mg/mL CPD1, 20 mM phosphate pH 7, 40° C.
[8] = 10 mg/mL CPD1, 20 mM phosphate pH 8, 40° C.

H[Aib]EGSFTSELATILD[ψ]QAARDFIAWLIQHKITD (H[Aib]EGSFTSELATILDK([γGlu-C18 diacid])QAARDFIAWLIQHKITD; not fully specified; printed as H[Aib]EGSFTSELATILD[ψ]QAARDFIAWLIQHKITD; also: X16: L or D lysine) [CPD1, GLP-1/GLP-2 dual agonist]
Aggregation (ThT), 270 mM mannitol [1]: FD
Aggregation (ThT), no added tonicity agent [1]: FD
Aggregation (ThT), 270 mM mannitol [2]: FND
Aggregation (ThT), no added tonicity agent [2]: FND
Aggregation (ThT), 270 mM mannitol [3]: FND
Aggregation (ThT), no added tonicity agent [3]: FND
Aggregation (ThT), 270 mM mannitol [4]: FND
Aggregation (ThT), no added tonicity agent [4]: FND
Aggregation (ThT), 270 mM mannitol [5]: FD
Aggregation (ThT), no added tonicity agent [5]: FD
Aggregation (ThT), 270 mM mannitol [6]: FND
Aggregation (ThT), no added tonicity agent [6]: FND
Aggregation (ThT), 270 mM mannitol [7]: FND
Aggregation (ThT), no added tonicity agent [7]: FND
Aggregation (ThT), 270 mM mannitol [8]: FND
Aggregation (ThT), no added tonicity agent [8]: FND
Amyloid formation / fibrillation (2 and 10 mg/mL CPD1, pH 6): amyloid formation was observed
Amyloid formation / fibrillation (2 and 10 mg/mL CPD1, pH 7 or 8): no fibrillation was observed
